Patent publication US10059748B2, “Pharmaceutical compositions for prevention or treatment of neurodegenerative diseases” (INSERM (INSTITUT NATIONAL DE LA SANTÉ ET DE LA RECHERCHE …, priority 2014, dated 2018)

What was measured:
[1] = system: primary cortical neurons; assay: Kinetics of neuronal death (pyknotic nuclei, TOPRO-3) after rotenone in microfluidic cultures; format: cell-based, rat; conditions: somatic application of rotenone
Description: 12 day-old neuronal cultures were subjected to oxidative stress by adding the respiratory chain complex I inhibitors rotenone (1 μM, diluted in DMEM containing 1 g/L glucose (Invitrogen), supplemented with 2 mM glutamine+1% penicillin/streptomycin+2% B-27+1% N2 supplements (Invitrogen)) or MPP+(1-methyl-4-phenylpyridinium, 10 μM in complete neuronal culture medium). The microtubule inhibitor colchicine (10 μM, complete neuronal culture medium) was used as a non-mitochondrial stress control. Toxins were added in the somatic or axonal chambers for respectively, somatic or axonal stress.
Neurons in the microfluidic cultures were fixed for 40 min at room temperature with PBS containing 4% paraformaldehyde (PFA), permeabilized using PBS+0.1% Triton-X100 during 20 min, rinsed with PBS, and blocked for 2 h with PBS+2.5% normal goat serum+3% BSA (blocking buffer). […] Fluorescence-based analyses and measurements were performed on either Zeiss LSM-510 or Zeiss LSM-710 inverted confocal microscopes with a 40× objective (63× objective for the analysis of mitochondrial network morphology and quantification of pDrp1 (S616) immunoreactivity). Immuno fluorescence analyses of Drp1 were performed using anti-pDrp1 (S616) (Cell Signaling Technologies, diluted 1:1000). Quantification of fluorescence intensities was performed using the threshold-based fluorescence quantification module of ImageJ software. […]

[2] = system: ROS production in primary neurons; assay: ROS production measurement (c-H2DCFDA); format: cell-based, rat; conditions: LV-transduced neurons, no stress
Description: The culture medium was removed from the axonal or somatic chambers and replaced by pre-warmed PBS containing carboxy-2′,7′-dichlorodihydrofluorescein diacetate (c-H2DCFDA, 5 μM in PBS; LifeTechnologies) for 45 min at 37° C., 5% CO2. After 2 washes in PBS, cultures were returned to warm culture medium for 30 min. Cells were fixed and the integrative fluorescence was measured on 3 randomly selected fields for each axonal chamber. Tert-butyl hydroperoxide (TBHP, LifeTechnologies) was used as a positive control of ROS detection. ROS amounts were detected by fluorescence (excitation/emission: 495/529 nm) and quantified by measuring integrative emission signal intensities for each culture (mean of 4 randomly taken pictures in the case of microfluidic cultures using Zeiss LSM 510 confocal; signal intensity of the whole culture for traditional cultures, using a VarioSkan Flash fluorescence reader (Thermo Electron)).

[3] = system: primary cortical neurons; assay: Axonal fragmentation in microfluidic primary neuron cultures after toxin treatment; format: cell-based, rat; conditions: neurons transduced with lentiviral vectors; rotenone in axonal chamber 16 h
Description: Primary cortical neurons were prepared from Sprague-Dawley rat embryos at gestational day 17. After dissection, cortex tissue was dissociated by a 15 min incubation at 37° C. in PBS containing 10 U/ml Papain (Worthington), followed by a gentle dissociation in PBS containing 1.5 mg/ml bovine serum albumin (BSA) and 1.5 mg/ml Trypsin inhibitor (from chicken egg, Sigma-Aldrich). After centrifugation through a 4% BSA cushion, neurons were plated on culture dishes coated with 0.5 mg/ml Poly-DL-Ornithine (PO, overnight, Sigma-Aldrich) and 5 mg/ml Laminin (2 h, Roche). Neuronal cultures were maintained in complete neuronal culture medium composed of serum-free Neurobasal (Gibco) supplemented with 2 mM L-Glutamine, 100 μg/ml penicillin/streptomycin (Gibco) and 2% B-27 supplement (Gibco). […]
The analysis of axonal degeneration was performed both by phase contrast observation and after immunostaining of axonal βIII-tubulin (Sigma-Aldrich). […] For each microfluidic culture, the total βIII-tubulin staining area was measured on 4 randomly selected pictures taken in the axonal chamber (MetaMorph software analysis, fixed thresholds). Then, the number of tubulin spots of fragmented axons was manually counted (Imaris software, Spot counting for “clicking” records) and the ratio between the number of spots and the total staining area was defined as a fragmentation index. […]

[4] = system: mitochondrial membrane potential (ΔΨm) of primary neurons; assay: Mitochondrial membrane potential analysis (JC-1); format: cell-based, rat; conditions: LV-transduced neurons, no stress
Description: Axons were stained with JC-1 dye (2 μM in PBS; LifeTechnologies) as described by the manufacturer. Briefly, JC-1 was added to the culture medium for 45 min at 37° C., 5% CO2, washed twice with PBS and analyzed by confocal microscopy using 488 nm excitation together with 530 nm and 585 nm band pass emission filters, whilst maintaining the cells at 37° C. and 5% CO2. Total fluorescence intensity was measured for each emission band pass with fixed thresholds and ratios between “red” (585 nm: active mitochondria) and “green” (530 nm: total mitochondria network) were determined for each culture (means of 4 randomly chosen pictures for each microfluidic culture).

[5] = system: OPA1, Mfn1/2, Fis1, Drp1; assay: Expression and recruitment of mitochondrial fission/fusion actors; format: cell-based; conditions: X-expressing cells
[6] = system: nigrostriatal dopaminergic (DA) neurons; assay: MPTP intoxication mouse model of PD, TH immunodetection in striatum and SNpc; format: in vivo; conditions: lentiviral vector, stereotaxic injection in SNpc two weeks before MPTP
Description: Peptides covering the N-terminal (PX1, aa 1-30), middle (PX2, aa 29-59) or C-terminal (PX3, aa 59-87) parts of BDV X protein (GenBank: ABW81015.1) coupled to the MPP sequence were synthesized to >95% (in vitro studies) or >99% (in vivo studies) purity (Génosphère). For in vitro experiments, neurons were grown for 12 days before replacing the medium by fresh complete neuronal culture medium containing 5 μM of the peptides. The cultures were maintained 90 min at 37° C., 5% CO2 before any treatment or analysis to ensure peptide penetration into neuronal mitochondria. For intra-cerebroventricular delivery, peptides were injected as described below. For intranasal peptide delivery, 10 μl drops of peptide solution (1 mM solution in saline: H2O+0.9% NaCl) were placed onto the mice nostrils daily from the day before to the 3rd day after MPTP intoxication. […]
For immunohistochemical staining, free-floating brain sections were first quenched for 5 min in 20% (v/v) methanol and 1% (v/v) hydrogen peroxide diluted in PBS, then blocked for 30 min in a 4% solution of BSA diluted in PBS-0.3% Triton-X100 and incubated overnight at 4° C. with a primary antibody directed against tyrosine hydroxylase (1:500 dilution, US biological). […] TH-positive neurons were quantified stereologically on regularly spaced sections covering the whole Substantia Nigra pars compacta (SNpc). […]

[7] = system: Drp1 (S616) phosphorylation; assay: Immunofluorescence quantification of phospho-Drp1 (S616); format: cell-based, rat
Description: Neurons in the microfluidic cultures were fixed for 40 min at room temperature with PBS containing 4% paraformaldehyde (PFA), permeabilized using PBS+0.1% Triton-X100 during 20 min, rinsed with PBS, and blocked for 2 h with PBS+2.5% normal goat serum+3% BSA (blocking buffer). Incubation for at least 2 h at room temperature with primary antibodies diluted in blocking buffer was followed, after extensive washes in PBS, by 1 h incubation at room temperature with fluorescently-conjugated secondary antibodies diluted in PBS. For TOPRO3 staining, somatic chambers were incubated with TOPRO3 (1:1000 in PBS; Invitrogen) for 10 min and then rinsed twice in PBS. All incubation and washes were reduced by 50% for neurons grown in standard coverslips. Fluorescence-based analyses and measurements were performed on either Zeiss LSM-510 or Zeiss LSM-710 inverted confocal microscopes with a 40× objective (63× objective for the analysis of mitochondrial network morphology and quantification of pDrp1 (S616) immunoreactivity). Immuno fluorescence analyses of Drp1 were performed using anti-pDrp1 (S616) (Cell Signaling Technologies, diluted 1:1000). Quantification of fluorescence intensities was performed using the threshold-based fluorescence quantification module of ImageJ software. All data were normalized on βIII-tubulin staining.

[8] = system: mitochondrial network of primary neurons; assay: Analysis of mitochondrial network morphology (Tom20 staining); format: cell-based, rat
Description: Primary cortical neurons were prepared from Sprague-Dawley rat embryos at gestational day 17. After dissection, cortex tissue was dissociated by a 15 min incubation at 37° C. in PBS containing 10 U/ml Papain (Worthington), followed by a gentle dissociation in PBS containing 1.5 mg/ml bovine serum albumin (BSA) and 1.5 mg/ml Trypsin inhibitor (from chicken egg, Sigma-Aldrich). After centrifugation through a 4% BSA cushion, neurons were plated on culture dishes coated with 0.5 mg/ml Poly-DL-Ornithine (PO, overnight, Sigma-Aldrich) and 5 mg/ml Laminin (2 h, Roche). Neuronal cultures were maintained in complete neuronal culture medium composed of serum-free Neurobasal (Gibco) supplemented with 2 mM L-Glutamine, 100 μg/ml penicillin/streptomycin (Gibco) and 2% B-27 supplement (Gibco).
Neurons were grown for 9 days at low density on 12 mm diameter glass coverslips placed in 24-well plates (5×10^4 cells per well). Transduction with lentiviral vectors was performed on day 3, whereas peptide was added to the medium on day 9. Neurons were left untreated or subjected to rotenone treatment (5 to 100 nM for 2 h, diluted in PBS), rinsed, fixed and directly stained for neuronal marker (βIII-tubulin) and mitochondria (Tom20, Santa Cruz Biotech.). Confocal pictures were taken and blinded to the investigator before image analysis. The sizes of mitochondria in all neuronal extensions of randomly selected neurons were determined using ImageJ software and mitochondria were classified in size categories (ranging from <2 μm to >8 μm). Each category was expressed as percentages relative to the size of the total mitochondrial network for a given neuron.

[9] = system: oxygen consumption rates of primary neurons; assay: Mitochondrial respiration measurements (Seahorse XF24 OCR); format: cell-based, rat; conditions: LV-transduced neurons, no stress
Description: Real-time measurements of oxygen consumption rates (OCR) were performed using a Seahorse XF24 extracellular flux analyzer (Seahorse Bioscience). Neurons were seeded and grown for 9 days in Seahorse XF24-wells plates (3×10^4 cells/well). Transduction with lentiviral vectors was performed on the 3rd day after seeding. Before measurements, the culture medium was replaced by warm respiration medium: DMEM without phenol red supplemented with 10 mM glucose, 2 mM L-Glutamine and 2 mM Pyruvate (Gibco) (the pH of the final culture medium was adjusted to 7.4). Following three 2-minute baseline measurements of OCR (3 minute-rest between each measure), mitochondrial complex inhibitors were sequentially injected into each well. Three OCR readings were taken after addition of each inhibitor and before automated injection of the subsequent inhibitor. Mitochondrial complex inhibitors, in order of injection, were Oligomycin (2 μM) to inhibit complex V (i.e., ATP synthase), FCCP (20 μM) to uncouple the proton gradient, Rotenone (2.0 μM), to inhibit complex I and Antimycin (2.0 μM), to inhibit complex III. OCR values were automatically calculated, recorded, and plotted by the Seahorse XF24 software.

Molecule	time to cell death [1] [h]	impact on ROS production at steady-state [2]	protection against rotenone-induced axonal fragmentation [3]	impact on ΔΨm at steady-state [4]	expression levels of OPA1, Mfn1/2, Fis1, Drp1 vs control cells [5]	recruitment of Drp1 to the mitochondria vs control cells [5]	ipsilateral TH-positive neurons in the SNpc after MPTP [6]	ipsilateral striatal fibers (TH) after MPTP [6]	enhanced Drp1 phosphorylation after treatment with rotenone ([7]; after rotenone)	phosphorylation of Drp1 on serine-616 ([7]; steady state)	rotenone-induced mitochondrial fission ([8]; after rotenone)	weighted mean size of mitochondria ([8]; after rotenone-induced oxidative stress (10 nM rotenone 2 h)) [μm]	decrease of short, fragmented mitochondria (<2 μm) ([8]; steady state) [%]	weighted mean size of mitochondria ([8]; steady state, without rotenone) [μm]	impact on respiration at steady-state [9]
C=C(C)[C@H]1Cc2c(ccc3c2O[C@@H]2COc4cc(OC)c(OC)cc4[C@@H]2C3=O)O1 [rotenone]	< 4	–	–	–	–	–	–	–	–	–	–	–	–	–	–
X protein: 87 amino acid X protein of Borna Disease Virus, expressed from a lentiviral vector (LV-X) (protein, Borna disease virus) MSSDLRLTLLELVRRLNGNATIESGRLPGGRRRSPDTTTGTVGVTKTTEDPKECIDPTGRPAPEGPQEEPLHDLRPRPANRKGAAIE	–	no impact	same level of axonal protection as infection with BDV	no impact	did not find any significant difference	no difference	almost complete protection	preservation	selectively reduced	severely reduced	significantly reduced	4.54	60	5.22	no impact
